{
  "source": "paper PMC10015889",
  "about": "“Hemophilia A subjects with an intron-22 gene inversion mutation show CD4^+ T-effector responses to multiple epitopes in FVIII” (Frontiers in Immunology, 2023)",
  "key": {"[1]": {"biological_target": "DR1104", "assay": "Peptide-MHCII competition binding assay, DR1104", "conditions": "biotinylated and non-biotinylated versions of the reference peptide; read-out: Binding affinity of reference peptide (IC50), DRB1*1104", "method": "(§1) Quantitative peptide-MHC competition binding assays were carried out to determine binding avidities of four 20-mer peptides spanning the F8 exon 22-23 junction region to 10 HLA-DRB1 proteins using methodology described previously ([29]). Briefly, 1-µl aliquots of serially diluted (50nM – 50μM in DMSO) non-biotinylated FVIII peptides, were added to triplicate wells of 96-well polypropylene plates. Serially diluted non-FVIII reference peptides known to bind to specific HLA-DRB1 ( Table S6 ) were added to separate wells as positive controls. The HLA-DRB1 proteins were diluted to 50 nM in 150 mM citrate-phosphate, pH 5.4, 0.75% n-octyl-beta-D-glucopyranoside, 1 mM PMSF. 50 μl of the HLA-DRB1 solution was added per well, and the plates were sealed and incubated at 37°C for 30 min to allow peptide binding to the HLA-DRB1 protein. […] Wallac enhancement solution (100 μl/well) was then added, and the plates were incubated at room temperature for 30 min and then read on a Victor 2D time-resolved fluorometer. Sigmoidal binding curves were simulated and IC50 values calculated for the FVIII peptides, based on their competition with the reference peptides for each HLA-DRB1."}, "[2]": {"biological_target": "T1, HLA-DR1101 (Homo sapiens, UniProt P01903+P01911, A100R/A169T/A87E/I96F/K41T/L162R/M171V/P40S/Q125H/Q178H/Q39Y/Q99D/R42S/S66Y/T262R/V115G/W38E)", "T1 construct": "Recombinant, extracellular domains of 10 HLA-DRB1 protein monomers; purchased Tetramer Core Facility, Benaroya Research Institute", "T1 sequence (P01903 26-216 limits assumed, other chains not shown)": "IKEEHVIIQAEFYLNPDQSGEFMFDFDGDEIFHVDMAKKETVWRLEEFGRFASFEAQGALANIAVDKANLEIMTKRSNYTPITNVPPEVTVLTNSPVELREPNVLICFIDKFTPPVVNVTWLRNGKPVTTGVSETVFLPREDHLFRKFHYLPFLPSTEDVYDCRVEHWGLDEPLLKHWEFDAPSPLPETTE", "conditions": "earlier study; cited from earlier work"}, "[3]": {"biological_target": "T2, HLA-DR1501 (Homo sapiens, UniProt P01903+P01911)", "T2 construct": "Recombinant, extracellular domains of 10 HLA-DRB1 protein monomers; purchased Tetramer Core Facility, Benaroya Research Institute", "conditions": "earlier study; cited from earlier work"}, "[4]": {"biological_target": "T3, HLA-DR0101 (Homo sapiens, UniProt P01903+P01911, A100R/D57E/F55L/F60I/F76Y/I96L/L162R/M171V/P40L/Q125E/R42F/V115G/Y59C)", "T3 construct": "Recombinant, extracellular domains of 10 HLA-DRB1 protein monomers; purchased Tetramer Core Facility, Benaroya Research Institute", "conditions": "earlier study; cited from earlier work"}, "[5]": {"biological_target": "DR1001", "assay": "Peptide-MHCII competition binding assay, DR1001", "conditions": "biotinylated and non-biotinylated versions of the reference peptide; read-out: Binding affinity of reference peptide (IC50), DRB1*1001", "method": "as §1"}},
  "data": [
    {"substance": "VP16 34-44: reference peptide for DRB1*1104 binding (APPLYATGRLS; UniProt P06492 34-44, looked up, fragment)", "values": [
      {"measurement": "IC50", "setting": "[1]", "result": "900 ± 100", "unit": "nM"}
    ]},
    {"substance": "R593-608: R593-608 motif of FVIII tested in earlier study (ref 20) (RFLPNPAGVQLEDPEF; UniProt P00451 612-627, looked up, fragment)", "values": [
      {"measurement": "Peptide-HLA-DR binding, in words, DR1101", "setting": "[2]", "result": "micromolar"},
      {"measurement": "Peptide-HLA-DR binding, in words, DR1501", "setting": "[3]", "result": "micromolar"},
      {"measurement": "Peptide-HLA-DR binding, in words, DR0101", "setting": "[4]", "result": "micromolar"}
    ]},
    {"substance": "TT 560-571: reference peptide for DRB1*1001 binding (IYQYLYAQKSPT; UniProt P04958 560-571, looked up, fragment)", "values": [
      {"measurement": "IC50", "setting": "[5]", "result": 200, "unit": "nM"}
    ]}
  ]
}
